Assays:
[1] = target: T1, MAGEA3 peptide no 5; assay: peptide ELISA (coated 20mer) [Figure 1]
T1 construct: also called MAGEA3 aa 41-60
T1 peptide: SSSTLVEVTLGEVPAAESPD
Experimental: (§1) 20mer peptides spanning the entire MAGEA3 protein with 10 aa overlaps shared by each adjacent peptide (Peptides&Elephants, Nuthetal, Germany) were used to coat Maxisorp ELISA plates (Nunc, Rochester, N.Y.). As control a 20mer peptide representing amino acids 40-21 from the NY-ESO-1 protein was used (rev). The numbering of amino acids of MAGEA3 is based on SEQ ID No:41.
(§2) Human recombinant antibody was used at a concentration of 1 μg/ml. Bound human antibody was detected using horseradish peroxidase-conjugated goat anti-human IgG Fc-gamma specific antibodies (Jackson ImmunoResearch, Europe Ltd., Cambridgeshire, UK).

[2] = target: T2, MAGEA3 peptide no 6; assay: ELISA on plate-coated 20mer peptide, antibody at 1 µg/ml, anti-human IgG Fc-HRP [Figure 1]
T2 construct: also called MAGEA3 aa 51-70
T2 peptide: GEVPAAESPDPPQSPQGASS
Experimental: as §1, §2

[3] = target: T3, MAGEA3 (human, UniProt P43357 1-314); assay: ELISA, plate coated with recombinant MAGEA3, serial dilution of antibody [Figure 4]
T3 construct: also called recombinant MAGEA3; MAGEA3-protein

[4] = target: T2, MAGEA3 peptide no 6; assay: peptide ELISA (coated 20mer) [Figure 1]
Experimental: as §1, §2

[5] = target: T1, MAGEA3 peptide no 5; assay: ELISA on plate-coated 20mer peptide, antibody at 1 µg/ml, anti-human IgG Fc-HRP [Figure 1]
Experimental: as §1, §2

[6] = target: T3, MAGEA3; assay: ELISA, plate coated with recombinant MAGEA3, serial dilution of antibody
[7] = target: T4, MAGEA3 peptide no 19; assay: peptide ELISA (coated 20mer)
T4 construct: also called MAGEA3 aa 181-200
T4 peptide: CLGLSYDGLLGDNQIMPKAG
Experimental: as §1, §2

[8] = target: T5, MAGEA3 peptide no 25; assay: peptide ELISA (coated 20mer)
T5 construct: also called MAGEA3 aa 241-260
T5 peptide: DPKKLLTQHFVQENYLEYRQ
Experimental: as §1, §2

[9] = target: T6, MAGEA3 peptide no 16; assay: peptide ELISA (coated 20mer)
T6 construct: also called MAGEA3 aa 151-170
T6 peptide: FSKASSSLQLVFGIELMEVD
Experimental: as §1, §2

[10] = target: T7, MAGEA3 peptide no 17; assay: peptide ELISA (coated 20mer)
T7 construct: also called MAGEA3 aa 161-180
T7 peptide: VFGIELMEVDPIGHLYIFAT
Experimental: as §1, §2

[11] = target: T8, MAGEA3 peptide no 1; assay: peptide ELISA (coated 20mer)
T8 construct: also called MAGEA3 aa 1-20
T8 peptide: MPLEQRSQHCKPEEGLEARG
Experimental: as §1, §2

[12] = target: T9, MAGEA3 peptide no 2; assay: peptide ELISA (coated 20mer)
T9 construct: also called MAGEA3 aa 11-30
T9 peptide: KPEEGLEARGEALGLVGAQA
Experimental: as §1, §2

[13] = target: T10, MAGEA3 peptide no 12; assay: peptide ELISA (coated 20mer)
T10 construct: also called MAGEA3 aa 111-130
T10 peptide: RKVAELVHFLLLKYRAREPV
Experimental: as §1, §2

[14] = target: T11, MAGEA3 peptide no 31; assay: peptide ELISA (coated 20mer)
T11 construct: also called MAGEA3 aa 295-314
T11 peptide: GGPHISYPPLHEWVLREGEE
Experimental: as §1, §2

[15] = target: T12, MAGEA3 peptide no 22; assay: peptide ELISA (coated 20mer)
T12 construct: also called MAGEA3 aa 211-230
T12 peptide: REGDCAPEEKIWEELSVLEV
Experimental: as §1, §2

B1: 34G9 (antibody, V domains shown)
VH: EVQLEESGGDLVQPGGSLRLSCAASGFTFSHYWMHWVRQAPGKGLVWVSRINSDGSSTSYADSVKGRFTISRDNAKNTLYLQMNSLRAEDTAVYYCARIGSDGYNYDFWGQGTLVTVSS
VL: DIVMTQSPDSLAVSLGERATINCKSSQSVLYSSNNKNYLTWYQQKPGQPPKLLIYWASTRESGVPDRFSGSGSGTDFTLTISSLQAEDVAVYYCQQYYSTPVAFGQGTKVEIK
notes: Patient-derived human antibody made recombinantly; also called human monoclonal antibody 34G9
- binding result [1]: no binding (tested: 1 µg/ml)
- binding result [2]: binds

B2: 102G10 (antibody, V domains shown)
VH: EVQLVESGGGLVKPGGSLRLSCAASGFTFSGNSMNWVRQAPGKGLEWVSSISSSSGYIYYADSVKGRFTVSRDNAKNSLYLQMNSLRAEDTAVYYCATWPVTTARVGYWGQGTLVTVSS
VL: QSVLTQPPSASGTPGQRVTISCSGSSSNIGSNYVYWHQQLPGTAPKLLIYRHDQRPSGVPDRFSGSKSGTSASLAISGLRSEDEADYYCAAWDDSLSAWVFGGGTKLTVL
notes: Patient-derived human antibody made recombinantly; also called human monoclonal antibody 102G10
- EC50 [3]: 0.034 nM
- binding result [4]: no binding (tested: 1 µg/ml)
- binding result [5]: binds

B3: 32H2 (antibody, V domains shown)
VH: QVQLVESGGGVVQPGRSLRLSCAASGFTFSSNAMHWVRQAPGKGLEWVAVISHDGSNKYYADSVKGRFTISRDNSKNTLYLQMNSLRAEDTAVYYCARDGSGSYFNLDYWGQGTLVTVSS
VL: QSALTQPASVSGSPGQSITISCTGTSSDVGGYNYVSWYQQHPGKAPKLMIYEVSNRPSGVSNRFSGSKSGNTASLTISGLQAEDEADYYCSSYTSSSTLVFGTGTKVTVL
notes: Patient-derived human antibody made recombinantly; also called human monoclonal antibody 32H2
- EC50 [6]: 0.033 nM
- EC50 (read off the curve) [6]: ~0.03 nM
- binding result [7]: no binding (tested: 1 µg/ml)
- binding result [8]: no binding (tested: 1 µg/ml)
- binding result [9]: no binding (tested: 1 µg/ml)
- binding result [10]: no binding (tested: 1 µg/ml)
- binding result [11]: no binding (tested: 1 µg/ml)
- binding result [12]: no binding (tested: 1 µg/ml)
- binding result [13]: no binding (tested: 1 µg/ml)
- binding result [14]: no binding (tested: 1 µg/ml)
- binding result [15]: no binding (tested: 1 µg/ml)

From US20140186363A1 (UNIVERSITY OF ZURICH, published 2014)
